Measurements as given in the nanobody polyreactivity screen of Harvey et al. (2022).

Test: yeast display, Sf9 membrane polyspecificity reagent, FACS + sequencing; frameworks hold sequencing errors
Procedure, shortened: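 Galactose induction of a Saccharomyces cerevisiae BJ5465 synthetic nanobody display library ran 36–48 hours. The cells were then stained for 1 hour at 4 °C with 10% biotinylated, detergent-solubilized Sf9 membrane reagent, pulled down on streptavidin microbeads and FACS-sorted into low and high (top ~1%) gates on expression and reagent-binding fluorescence. Labels for polyreactivity follow the gate of origin.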

| Sequence | polyreactivity (PSR sort gate) |
| --- | --- |
| QVQLVESGGGLVQAGGSLRLSCAASGSIFTSYGMGWYRQAPGKERELVAAITYSGDRTYYADSVKGRFTISRDNAKITVYFQMNSLIPEDTAVYYCNVAYVYGSFRRRPMGYWGQGTQVTVSS | high polyreactivity |
| QVQLVESGGGLVQAGGSLRLSCAASGSIFTTYTMGWYRQAPGKERELVAAITAGGGTTYYADSVKGRFTISRDNAKNTVYLQMNSLKPEDTAVYYCAAANSFYYIATGEYDYWGQGTQVTVSS | high polyreactivity |
| QVQLVESGGGLVQAGGSLRLSCAASGSIFTVNAMGWYRQAPGKEREFVAAITGGGTSTYYADSVKGRFTISRDNAKNTVYLQMNSLKPEDTAVYYCAATTYHYSPTYGYWGQGTQVTVSS | low polyreactivity |
| QVQLVESGGGLVQAGGSLRLSCAASGSIFTVNAMGWYRQAPGKERELVAAISSGGSTHYADSVKGRFTISRDNAKNTVYLQMNSLKPEDTAVYYCAAVYVPYYGYSTRYDYWGQGTQVTVSS | low polyreactivity |
| QVQLVESGGGLVQAGGSLRLSCAASGSIFTVNAMGWYRQAPGKERELVATITNGGGTYYADSVKGRFTISRDNAKNTVYLQMNSLKPEDTAVYYCAARTWGHYDYWGQGTQVTVSS | low polyreactivity |
| QVQLVESGGGLVQAGGSLRLSCAASGSIFTVNAMGWYRQARGKERELVAAISSGGSTHYADSVKGRFTISRDNAKNTVYLQMNSLKPEDTAVYYCARDRPGDYAGYDYWGQGTQVTVSS | low polyreactivity |
| QVQLVESGGGLVQAGGSLRLSCAASGSIFTVYAMGWYRQAPGKERELVAAISSSGGTTYYADSVKGRFTISRDNAKNTVYLQMTSLKPEDTAVYYCAAPTHSPYDYWGQGTQVTVSS | low polyreactivity |
| QVQLVESGGGLVQAGGSLRLSCAASGSIFTVYGMGWYRQAPGKERELVAAISRSGGSTYYADSVKGRFTISRDNAKNTVYLQMNSLKPEDTAVYYCNADLVYNTLIYSGGDEYDYWGQGTQVTVSS | high polyreactivity |
| QVQLVESGGGLVQAGGSLRLSCAASGSIFTWYAMGWSRPAPGKERELVAAITRGGSTYADSVKGRFTISRDNAKNTVYLQMNSLKPEDSAVYYCNAVYGVYDFNYWGQGTQVTVSS | low polyreactivity |
| QVQLVESGGGLVQAGGSLRLSCAASGSIFTWYAMGWYRQAPGKEREFVDSITGSGGSTYYADSVKGRFTISRDNAKNTVYLQMNSLKPEDTAVYYCAKGHVYSSYRYRLRSTAFGYWGQGTQVTVSS | high polyreactivity |
| QVQLVESGGGLVQAGGSLRLSCAASGSIFTYNAMGWYRPAPGKERELVAAINTSGSTNYADSVKGRFTISRDNAKNTVYLQMNSLKPEDTAVYYCAAGIVVTGYDYWGQGTQVTVSS | low polyreactivity |
| QVQLVESGGGLVQAGGSLRLSCAASGSIFTYNAMGWYRQAPGKERELVAAITRSGGRTYYADSVKGRFTISRDTAKNTVYLQMNSLKPEATAVYYCNTLRVGWGQGTQVTVSS | high polyreactivity |
| QVQLVESGGGLVQAGGSLRLSCAASGSIFTYNAMGWYRQAPGKERELVAVISWSGGSTYYADSVKGRFTISRDNAKNTVYLQMNSLKPEDTAVYYCNAYYYRPYGNKYGYWGQGTQVTVSS | high polyreactivity |
| QVQLVESGGGLVQAGGSLRLSCAASGSIFTYNVMGWYRQAPGKERELVASISWSGGRTYYADSVKGRFTISRDNAKNTVYLQMNSLKPEDTAVYYCNKVRPPVYFPNRDYWGQGTQVTVSS | low polyreactivity |
| QVQLVESGGGLVQAGGSLRLSCAASGSIFTYYAMGWYRPAPGKERELVATITRRGGRTYYADSVKGRFTISRDNAKNTVYLQMNSLKPEDTAVYYCATRIRTVAYNYWGQGTQVTVSS | high polyreactivity |
| QVQLVESGGGLVQAGGSLRLSCAASGSIFTYYAMGWYRQAPGKERELVADISKRGGSTYYADSVKGRFTISRDNAKNTVYLQMNSLKPEYTAVYYCATRARYTWRAFEYWGQGTQVTVSS | low polyreactivity |
| QVQLVESGGGLVQAGGSLRLSCAASGSIFVANAMGWYRQAPGKETELVAAISQDGGTKYYADSVKGRFTISRDNAKNTVYLQMNSLKPEDTAVYYSAAEYPSFPEDDEYDYWGQGTQVTVSS | low polyreactivity |
